Three molecules from patent publication US20240041922A1 (MONASH UNIVERSITY, published 2024) can be followed below.

Test [1] addresses T1, recombinant mouse CCR5 (MyBioSource) (mouse, UniProt P51682 1-354, limits assumed).
T1 construct: Coated on the ELISA plate at 20 nM; also called mrCCR5; mouse recombinant CCR5
Nature of the test: competitive ELISA: plate coated with 20 nM mrCCR5, 0-400 nM mrCCL4 with 100 nM hrNAMPT(1) as competitor, bound hrNAMPT(1) detected. The protocol:
Then, wells were blocked for 1 h at room temperature with 1% BSA in PBS containing 0.05% Tween-20 (PBS-T).
In general terms: In an ELISA, binding on a coated surface is turned into a signal by an enzyme label.

The target of test [2] is CCR5 (as used in the NAMPTcif competition assay of FIG. 9b). Nature of the test: competition assay: inhibition of NAMPT binding to CCR5 by NAMPTcif (FIG. 9b); format not described.
Test [3] deals with T2, human recombinant NAMPT(1) (recombinant human visfatin, PeproTech) (human, UniProt P43490 27-491, limits assumed).
T2 construct: Bought protein; also called hrNAMPT(1); hrNAMPT source 1
Nature of the test: ELISA: plate coated with 20 nM GST-hrCCR5, 0-800 nM hrNAMPT(1), biotinylated anti-NAMPT detection, BSA signal deducted, non-linear fit. The protocol:
Wells were blocked for 1 h at room temperature with 1% BSA in PBS containing 0.05% Tween-20 (PBS-T).

T1 sequence (P51682 whole entry): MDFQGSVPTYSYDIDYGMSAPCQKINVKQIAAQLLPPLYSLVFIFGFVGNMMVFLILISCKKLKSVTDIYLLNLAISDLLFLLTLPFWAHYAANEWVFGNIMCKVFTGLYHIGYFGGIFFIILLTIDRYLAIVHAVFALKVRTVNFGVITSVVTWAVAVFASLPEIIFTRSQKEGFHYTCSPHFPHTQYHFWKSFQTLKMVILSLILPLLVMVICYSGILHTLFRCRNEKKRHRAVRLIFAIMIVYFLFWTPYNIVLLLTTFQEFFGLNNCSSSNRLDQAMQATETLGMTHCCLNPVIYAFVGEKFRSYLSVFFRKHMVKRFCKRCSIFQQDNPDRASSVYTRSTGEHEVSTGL
T2 sequence (P43490 27-491 limits assumed): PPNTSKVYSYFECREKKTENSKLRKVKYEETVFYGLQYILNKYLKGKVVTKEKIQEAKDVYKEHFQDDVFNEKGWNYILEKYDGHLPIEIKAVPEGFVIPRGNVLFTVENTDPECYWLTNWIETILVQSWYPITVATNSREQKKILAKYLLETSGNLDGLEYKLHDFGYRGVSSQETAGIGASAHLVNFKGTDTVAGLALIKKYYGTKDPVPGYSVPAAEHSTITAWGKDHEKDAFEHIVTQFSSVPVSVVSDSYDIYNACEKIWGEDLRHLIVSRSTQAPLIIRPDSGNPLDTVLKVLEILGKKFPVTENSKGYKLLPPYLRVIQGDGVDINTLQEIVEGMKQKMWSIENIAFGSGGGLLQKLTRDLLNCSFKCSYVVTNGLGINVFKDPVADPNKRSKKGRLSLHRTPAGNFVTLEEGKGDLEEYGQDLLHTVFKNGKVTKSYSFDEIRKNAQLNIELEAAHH

B1: recombinant murine CCL4/MIP-1beta (PeproTech) (ligand, mouse, UniProt P14097 24-92, looked up)
chain: APMGSDPPTSCCFSYTSRQLHRSFVMDYYETSSLCSKPAVVFLTKRGRQICANPSEPWVTEYMSDLELN
notes: also called mrCCL4; mouse recombinant CCL4
The term IC50 denotes the point on the concentration scale where inhibition reaches its midpoint. With B1, the IC50 in test [1] turned out to be 34.4 nM.

B2: NAMPT402-491 (recombinant C-terminal 'cytokine finger' fragment of NAMPT) (ligand)
chain: MSYVVTNGLGVNVFKDPVADPNKRSKKGRLSLHRTPAGNFVTLEEGKGDLEEYGHDLLHTVFKNGKVTKSYSFDEVRKNAQLNIEQDVAPHHHHHHH
notes: Made in E. coli BL21(DE3) from pET22b(+) and purified on HisTap; also called NAMPTcif; cif
In test [2], B2 gave an IC50 of 21.5 nM.

B3: GST-fused recombinant human CCR5 (Abcam) (receptor)
chain: not shown
notes: Coated on the ELISA plate at 20 nM; GST is put first here only by convention; also called hrCCR5; human recombinant CCR5; not shown: GST fusion partner
As usually defined, the Kd is the constant that tells how readily two partners part at equilibrium. With B3, in test [3], the Kd came to 172 nM.
